Measured values taken from US20230067757A1 (NOVAROCK BIOTHERAPEUTICS, published 2023).
Substitutions are numbered along the chain they refer to.

B1: Ms18 (antibody, V domains shown)
VH: QVQLKESGPGLVAPSQSLSITCTVSGFSLISYGVHWVRQPPGKGLEWLGVIWAGGNTNYNSALMSRLSISKDNSKSQVFLKMNSLQTDDTAMYYCARVYYGNSFDYWGQGTTLTVSS
VL: DIVMTQSPSSLTVTAGEKVTMSCKSSQSLLNSGNQKNYLTWYQQKPGQPPKLLIYWASTRQSGVPDRFTGSGSGTDFSLTISSVQAEDLAVYYCHNDYTYPLTFGAGTKLELK
B2: Ms20 (antibody, V domains shown)
VH: EIQLQQSGPELMKPGASVKISCKASGYSFTSYYMHWVKQSHGKSLEWIGYFDPYNGGTNYNQKFKGKATLTADKSSSTAYMHLSSLTSEDSAVYYCACYRFFAVWGAGTTVTVSS
VL: B1 VL with Q61E, S78T, H95Q, T99S
B3: Ms21 (antibody, V domains shown)
VH: DVQLVESGGGLVQPGGSRKLSCAASGFTFSTFGMHWVRQAPEKGLEWVAFINGDSSSIYYADTVKGRFTISRDNPKNILFLQMTSLRSEDTAMYYCARFARGNSFDYWGQGTTLTVSS
VL: B1 VL with L30F, G47W, Q61E, S78T, S82T, A86T, H95Q, N96I, D97G
B4: Ms22 (antibody, V domains shown)
VH: QVQLKESGPGLVAPSQSLSITCTVSGFSLTSNGVHWVRQPPGKGLEWLGVIWAGGSTNYNSALMSRLSISKDNSKSQVFLKMNSLQTHDTAMYYCARDKYDGTGFDYWGQGTTLTVSS
VL: QIVLTQSPAIMSASPGEKVTMTCSASSSVSNMYWYQQKPGSSPRLLIYDTSNLASGVPVRFSGSGSGTSYSLTISRMEAEDAATYYCQQWSSYPYTFGGGTKLEIK
B5: Ms19 (antibody, V domains shown)
VH: EVQLQQSGPELVKPGASVKMSCKASGYTFTSYVIHWVKQKPGQGLEWIGYINPYNDGSKYNEKFKGKATLTSDKSSSTAYMELSSLTSEDSAVYYCAREGYGKRNALDYWGQGTSVTVSS
VL: DIVMTQSPSSLSVSAGERVTMSCKSSQSLLNSGNQKNYLAWYQQKPGQPPKLLIYGASTRESGVPDRFTGSGSGTDFTLIISSVQVEDLAVYYCQNDHFYPLTFGAGTKLELK
B6: Ms15 (antibody, V domains shown)
VH: EVQLQQSGPELVRPGASVKMSCRASGYTFTNYIIHWVKQKPGQGLEWIGYFNPYNDGTKYNEIFKDKATLTSDKSSSTAYMELRSLTSEDSAVYYCAKLRQERIAYWGQGTLVTVSA
VL: DIQMNQSPSSLSASLGDTITITCHVSQNIDVWLSWYQQKPGNIPKLLIYKASNLHTGVPSRFSGSGSGTGFTLTISSLQPEDIATYYCQQGQSYPLTFGAGTKLELK
B7: Ms17 (antibody, V domains shown)
VH: B6 VH with R13K, R23K, T58I, K59E, N61S, I63K, D66G, R84S, A97S, I104F
VL: B6 VL with V25A, D30N

biological target: human claudin 18 isoform 2 (claudin 18.2) (human); assay: cell-based or functional assay

| Binder | endocytosis derived cell toxicity EC50, CHO-18.2 cells (anti-IgG Fc-MMAF co-internalization) |
| --- | --- |
| B1 | 1.39 nM |
| B2 | 1.07 nM |
| B3 | 0.95 nM |
| B4 | 1.61 nM |
| B5 | 1.36 nM |
| B6 | 1.15 nM |
| B7 | 0.81 nM |

biological target: T1, human claudin 18 isoform 1 (claudin 18.1) (human, UniProt P56856 1-261); assay: imaging, CHO-CLDN18.1 cells, single concentration (FIG. 3A)
T1 construct: Recombinant on transfected CHO cells (CHO-CLDN18.1); also called CLDN18.1
T1 sequence (P56856 whole entry, canonical isoform): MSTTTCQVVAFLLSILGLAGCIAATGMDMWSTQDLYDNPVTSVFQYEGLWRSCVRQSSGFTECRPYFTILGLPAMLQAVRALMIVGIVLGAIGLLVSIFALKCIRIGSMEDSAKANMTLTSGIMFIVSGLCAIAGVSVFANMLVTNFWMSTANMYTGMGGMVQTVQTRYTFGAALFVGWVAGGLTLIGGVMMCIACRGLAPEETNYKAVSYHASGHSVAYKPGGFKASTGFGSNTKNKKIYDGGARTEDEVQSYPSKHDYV
Description: (§1) The specific cellular binding affinity of anti-Claudin18.2 antibodies was tested on CHO-CLDN18.2 (transfected CHO cell expressing recombinant human CLDN18.2) and CHO-CLDN18.1 (transfected CHO cell expressing recombinant human CLDN18.1) cells. The cells were plated in complete media containing F12 with 10% FBS, then incubated overnight at 37° C., anti-Claudin18.2 antibodies were serial diluted and added to the assay plates, incubated at 4° C. for 2 hours, followed by fixing cells and further staining the cells for 30 minutes with Alexa Fluor® 488 Goat Anti-Human IgG (H+L) secondary antibody, invitrogen Cat #A-11013 for detection. The binding was assessed by imaging the cells and quantifying the fluorescence intensity using a Biotek Cytation.

| binding result | Binder |
| --- | --- |
| no binding (tested: 10 µg/ml) | B1 |
| no binding (tested: 10 µg/ml) | B2 |
| no binding (tested: 10 µg/ml) | B3 |
| no binding (tested: 10 µg/ml) | B4 |
| no binding (tested: 10 µg/ml) | B5 |
| no binding (tested: 10 µg/ml) | B6 |
| no binding (tested: 10 µg/ml) | B7 |

biological target: T2, human claudin 18 isoform 2 (claudin 18.2) (human); assay: immunofluorescence imaging, CHO-CLDN18.2 cells, serial dilution
T2 construct: Recombinant on transfected CHO cells (CHO-CLDN18.2) or endogenous on tumor cell lines PATU8988S, NUGC-4, KATOIII; the cell line is named under assay; also called CLDN18.2
Description: as §1

| EC50 | Binder |
| --- | --- |
| 1.3 nM | B1 |
| 1.3 nM | B2 |
| 1.5 nM | B3 |
| 2.6 nM | B4 |
| 2.3 nM | B5 |
| 1.8 nM | B6 |
| 1.4 nM | B7 |

biological target: T2, human claudin 18 isoform 2 (claudin …); assay: imaging, PATU8988S cells (endogenous CLDN18.2); +++ = EC50 between 2 nM and 20 nM

| EC50 | Binder |
| --- | --- |
| 2 to 20 nM | B1 |
| 2 to 20 nM | B2 |
| 2 to 20 nM | B3 |
| 2 to 20 nM | B4 |
| 2 to 20 nM | B5 |
| 2 to 20 nM | B6 |
| 2 to 20 nM | B7 |
